This note sets out measurements from US20140113288.

Residue numbers refer to the chain shown, from its start.

Sequence of syncytin-1-HA, Q9UQF0 (Q9UQF0 21-538): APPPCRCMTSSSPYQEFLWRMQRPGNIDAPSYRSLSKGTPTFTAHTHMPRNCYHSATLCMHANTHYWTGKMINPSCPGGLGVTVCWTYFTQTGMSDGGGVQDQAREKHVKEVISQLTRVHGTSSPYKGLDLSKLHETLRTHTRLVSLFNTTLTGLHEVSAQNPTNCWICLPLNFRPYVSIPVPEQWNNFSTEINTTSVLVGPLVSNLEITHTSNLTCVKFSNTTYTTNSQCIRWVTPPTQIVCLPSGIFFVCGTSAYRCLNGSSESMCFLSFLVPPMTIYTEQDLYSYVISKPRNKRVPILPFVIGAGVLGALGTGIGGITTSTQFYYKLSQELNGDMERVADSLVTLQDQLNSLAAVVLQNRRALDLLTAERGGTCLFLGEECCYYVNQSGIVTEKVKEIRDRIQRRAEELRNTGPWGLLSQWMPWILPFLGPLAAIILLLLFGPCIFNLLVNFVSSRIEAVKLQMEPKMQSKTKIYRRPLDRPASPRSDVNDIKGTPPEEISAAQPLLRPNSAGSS

B1: HtrA4-FLAG (protein)
chain: EKLHTQPSCPAVCQPTRCPALPTCALGTTPVFDLCRCCRVCPAAEREVCGGAQGQPCAPGLQCLQPLRPGFPSTCGCPTLGGAVCGSDRRTYPSMCALRAENRAARRLGKVPAVPVQWGNCGDTGTRSAGPLRRNYNFIAAVVEKVAPSVVHVQLWGRLLHGSRLVPVYSGSGFIVSEDGLIITNAHVVRNQQWIEVVLQNGARYEAVVKDIDLKLDLAVIKIESNAELPVLMLGRSSDLRAGEFVVALGSPFSLQNTATAGIVSTKQRGGKELGMKDSDMDYVQIDATINYGNSGGPLVNLDGDVIGVNSLRVTDGISFAIPSDRVRQFLAEYHEHQMKGKAFSNKKYLGLQMLSLTVPLSEELKMHYPDFPDVSSGVYVCKVVEGTAAQSSGLRDHDVIVNINGKPITTTTDVVKALDSDSLSMAVLRGKDNLLLTVIPETIN
As for B1, in the series with syncytin-1-HA, Q9UQF0, the “protein level of surface syncytin-1-HA TM subunit (biotinylation, streptavidin pull-down, HA mAb)” value is “the protein level of the TM subunit of syncytin-1-HA decreased in the presence of HtrA4-FLAG, but not HtrA4mt-FLAG”. The “cleavage of fibronectin (immunoblotting with anti-fibronectin Ab)” value with fibronectin was “cleavage of fibronectin by HtrA4-FLAG, but not HtrA4mt-FLAG, was observed in a dose-dependent manner”.

B2: HtrA4mt-FLAG (protein)
chain: B1 chain with S295A
Regarding B2, the “protein level of surface syncytin-1-HA TM subunit (biotinylation, streptavidin pull-down, HA mAb)” value with syncytin-1-HA, Q9UQF0 was “the protein level of the TM subunit of syncytin-1-HA decreased in the presence of HtrA4-FLAG, but not HtrA4mt-FLAG”. In addition, the “cleavage of fibronectin (immunoblotting with anti-fibronectin Ab)” value with fibronectin is listed as “cleavage of fibronectin by HtrA4-FLAG, but not HtrA4mt-FLAG, was observed in a dose-dependent manner”.
